# Assay results as given in publication PMC7332060, “Characterizing the actin-binding ability of Zasp52 and its contribution to myofibril assembly” (PLoS ONE, 2020).
# B1: GST-Zasp52-PK (natural protein)
# chain: MAQPQLLQIKLSRFDAQPWGFRLQGGTDFAQPLLVQKVNAGSLSEQAGLQPGDAVVKINDVDVFNLRHKDAQDIVVRSGNNFVITVQRGGSTWRPHVTPTGNVPQPNSPYLQTVTKTSLAHKQQDSQHIGCGYNNAARPFSNGGDGGVKSIVNKQYNTPVGIYSDESIAETLSAQAEVLAGGVLGVNFKKNEKEYQGDRSEVLKFLREEETGQSTPAFGNSHYEHDAPQQLQQPQQQYNQHQQHYHQQQQQQQSSTTRHVSAPVNSPKPPSTGGLPTGQNICTECERLITGVFVRIKDKNLHVECFKCATCGTSLKNQGYYNFNNKLYCDIHAKQAAINNPPTGTEGYVPVPIKPNTKLSASTISSALNSHGYGGHSNGYSNGNSTPAPAPV
# Assays:
# [1] = molecular target: G-actin (Cytoskeleton AKL-99) (UniProt P68135 1-377); experiment: SPR; surface plasmon resonance imaging (PlexArray HT); GST-Zasp52-PK printed on gold-coated chip; G-actin or α-actinin injected; PBST running buffer; 25°C; kinetic analysis with BIAevaluation 4.1; conditions: both partners purified
# GST-Zasp52-PK = molecular target: B1; experiment: as above; conditions: both partners purified
Kd [1] [nM],Kd (GST-Zasp52-PK) [nM],Binder
1100,,B1
,86.5,α-actinin (Cytoskeleton AT-01) (natural protein) MNQIEPGVQYNYVYDEDEYMIQEEEWDRDLLLDPAWEKQQRKTFTAWCNSHLRKAGTQIENIEEDFRNGLKLMLLLEVISGERLPKPDRGKMRFHKIANVNKALDYIASKGVKLVSIGAEEIVDGNVKMTLGMIWTIILRFAIQDISVEETSAKEGLLLWCQRKTAPYRNVNIQNFHTSWKDGLGLCALIHRHRPDLIDYSKLNKDDPIGNINLAMEIAEKHLDIPKMLDAEDIVNTPKPDERAIMTYVSCFYHAFAGAEQAETAANRICKVLAVNQENERLMEEYERLASELLEWIRRTIPWLENRTPEKTMKAMQKKLEDFRDYRRKHKPPKVQEKCQLEINFNTLQTKLRISNRPAFMPSEGKMVSDAGAWQRLEQAEKGYEEWLLNEIRRLERLEHLAEKFRQKASTHETWAYGKEQILLQKDYESASLTEVRALLRKHEAFESDLAAHQDRVEQIAAIAQELNELDYHDAVNVNDRCQKICDQWDRLGTLTQKRREALERTEKLLETIDQLHLEFAKRAAPFNNWMEGAMEDLQDMFIVHSIEEIQSLITAHEQFKATLPEADGERQSIMAIQNEVEKVIQSYNIRISSSNPYSTVTMDELRAKWDKVKQLVPIRDQSLQEELARQHANERLRRQFAAQANAIGPWIQNKMEEIARSSIQITGALEDQMNQLKQYEHNIINYKNNIDKLEGDHQLIQEALVFDNKHTNYTMEHIRVGWELLLTTIARTINEVETQILTRDAKGITQEQMNEFRASFNHFDRRKNGLMDHEDFRACLISMGYDLGEAEFARIMTLVDPNGQGTVTFQSFIDFMTRETADTDTAEQVIASFRILASDKPYILAEELRRELPPDQAQYCIKRMPAYSGPGSVPGALDYTAFSSALYGESDL
